The source of these data is the supplement of paper PMC5998384.

Series [1] relates to HeLa Kyoto. In words: solubility in G1/S (NP-40 vs SDS abundance) (log2 ratio); higher = more soluble. The note with it: cell cycle stage: G1/S.
Series [2] relates to HeLa Kyoto. Briefly: melting temperature (median over replicates), in situ; higher = more thermally stable.
For series [3], the system named is HeLa Kyoto. In words: solubility change mitosis vs G1/S (difference of NP-40 vs SDS log2 ratios) (log2 ratio difference); higher = more soluble in mitosis.
Series [4] relates to HeLa Kyoto. In words: thermal stability score vs G1/S (z-score of summed log2 fold changes over temperatures); higher = more thermally stable than in G1/S.
The mark [5] stands for this setting: cell cycle stage: early G1 (4.5 h after nocodazole release).
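Throughout, for melting temperature (median over replicates), in situ: HeLa Kyoto cells synchronized by double thymidine or nocodazole block, proteins quantified by TMT10plex mass spectrometry, three independent biological replicates.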
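Throughout, for solubility change mitosis vs G1/S (difference of NP-40 vs SDS log2 ratios): synchronized HeLa Kyoto cells (double thymidine block for G1/S, nocodazole release for mitosis), protein amounts in NP-40 versus SDS lysates quantified by mass spectrometry, three biological replicates.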
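Throughout, for solubility in G1/S (NP-40 vs SDS abundance): HeLa Kyoto cells arrested at G1/S by double thymidine block, proteins quantified by TMT10plex mass spectrometry in mild NP-40 versus SDS extracts, three biological replicates.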
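Throughout, for thermal stability score vs G1/S (z-score of summed log2 fold changes over temperatures): synchronized HeLa Kyoto cells, proteins quantified by TMT10plex mass spectrometry, three biological replicates, mitosis taken 0.5 h after nocodazole release, G1/S directly after double thymidine block.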

On to “MDAKARNCLLQHREALEKDIKTSYIMDHMISDGFLTISEEEKVRNEPTQQQRAAMLIKMILKKDNDSYVSFYNALLHEGYKDLAALLHDGIPVVSSSSGKDSVSGITSYVRTVLCEGGVPQRPVVFVTRKKLVNAIQQKLSKLKGEPGWVTIHGMAGCGKSVLAAEAVRDHSLLEGCFPGGVHWVSVGKQDKSGLLMKLQNLCTRLDQDESFSQRLPLNIEEAKDRLRILMLRKHPRSLLILDDVWDSWVLKAFDSQCQILLTTRDKSVTDSVMGPKYVVPVESSLGKEKGLEILSLFVNMKKADLPEQAHSIIKECKGSPLVVSLIGALLRDFPNRWEYYLKQLQNKQFKRIRKSSSYDYEALDEAMSISVEMLREDIKDYYTDLSILQKDVKVPTKVLCILWDMETEEVEDILQEFVNKSLLFCDRNGKSFRYYLHDLQVDFLTEKNCSQLQDLHKKIITQFQRYHQPHTLSPDQEDCMYWYNFLAYHMASAKMHKELCALMFSLDWIKAKTELVGPAHLIHEFVEYRHILDEKDCAVSENFQEFLSLNGHLLGRQPFPNIVQLGLCEPETSEVYQQAKLQAKQEVDNGMLYLEWINKKNITNLSRLVVRPHTDAVYHACFSEDGQRIASCGADKTLQVFKAETGEKLLEIKAHEDEVLCCAFSTDDRFIATCSVDKKVKIWNSMTGELVHTYDEHSEQVNCCHFTNSSHHLLLATGSSDCFLKLWDLNQKECRNTMFGHTNSVNHCRFSPDDKLLASCSADGTLKLWDATSANERKSINVKQFFLNLEDPQEDMEVIVKCCSWSADGARIMVAAKNKIFLFDIHTSGLLGEIHTGHHSTIQYCDFSPQNHLAVVALSQYCVELWNTDSRSKVADCRGHLSWVHGVMFSPDGSSFLTSSDDQTIRLWETKKVCKNSAVMLKQEVDVVFQENEVMVLAVDHIRRLQLINGRTGQIDYLTEAQVSCCCLSPHLQYIAFGDENGAIEILELVNNRIFQSRFQHKKTVWHIQFTADEKTLISSSDDAEIQVWNWQLDKCIFLRGHQETVKDFRLLKNSRLLSWSFDGTVKVWNIITGNKEKDFVCHQGTVLSCDISHDATKFSSTSADKTAKIWSFDLLLPLHELRGHNGCVRCSAFSVDSTLLATGDDNGEIRIWNVSNGELLHLCAPLSEEGAATHGGWVTDLCFSPDGKMLISAGGYIKWWNVVTGESSQTFYTNGTNLKKIHVSPDFKTYVTVDNLGILYILQTLE [APAF1]”, for which the “solubility in G1/S (log2)” value in series [1] was -0.414. Besides, the melting temperature came out at 51.2 °C in series [2] (cell cycle stage: G1/S) and 49.7 °C in series [2] (cell cycle stage: mitosis). The “solubility change mitosis (log2)” value in series [3] is -0.0529. In addition, the thermal stability score was -0.116 in series [4] (setting [5]) and 0.0498 in series [4] (cell cycle stage: mitosis).

With “MDAPRQVVNFGPGPAKLPHSVLLEIQKELLDYKGVGISVLEMSHRSSDFAKIINNTENLVRELLAVPDNYKVIFLQGGGCGQFSAVPLNLIGLKAGRCADYVVTGAWSAKAAEEAKKFGTINIVHPKLGSYTKIPDPSTWNLNPDASYVYYCANETVHGVEFDFIPDVKGAVLVCDMSSNFLSKPVDVSKFGVIFAGAQKNVGSAGVTVVIVRDDLLGFALRECPSVLEYKVQAGNSSLYNTPPCFSIYVMGLVLEWIKNNGGAAAMEKLSSIKSQTIYEIIDNSQGFYVCPVEPQNRSKMNIPFRIGNAKGDDALEKRFLDKALELNMLSLKGHRSVGGIRASLYNAVTIEDVQKLAAFMKKFLEMHQL [PSAT1]”, the “solubility in G1/S (log2)” value in series [1] was found to be 0.15. The melting temperature in series [2] (cell cycle stage: G1/S) and in series [2] (cell cycle stage: mitosis) was 55.6 °C throughout. In series [3], the “solubility change mitosis (log2)” value was -0.136. The thermal stability score was -0.482 in series [4] (setting [5]) and -0.769 in series [4] (cell cycle stage: mitosis).

On to “MDASLEKIADPTLAEMGKNLKEAVKMLEDSQRRTEEENGKKLISGDIPGPLQGSGQDMVSILQLVQNLMHGDEDEEPQSPRIQNIGEQGHMALLGHSLGAYISTLDKEKLRKLTTRILSDTTLWLCRIFRYENGCAYFHEEEREGLAKICRLAIHSRYEDFVVDGFNVLYNKKPVIYLSAAARPGLGQYLCNQLGLPFPCLCRVPCNTVFGSQHQMDVAFLEKLIKDDIERGRLPLLLVANAGTAAVGHTDKIGRLKELCEQYGIWLHVEGVNLATLALGYVSSSVLAAAKCDSMTMTPGPWLGLPAVPAVTLYKHDDPALTLVAGLTSNKPTDKLRALPLWLSLQYLGLDGFVERIKHACQLSQRLQESLKKVNYIKILVEDELSSPVVVFRFFQELPGSDPVFKAVPVPNMTPSGVGRERHSCDALNRWLGEQLKQLVPASGLTVMDLEAEGTCLRFSPLMTAAVLGTRGEDVDQLVACIESKLPVLCCTLQLREEFKQEVEATAGLLYVDDPNWSGIGVVRYEHANDDKSSLKSDPEGENIHAGLLKKLNELESDLTFKIGPEYKSMKSCLYVGMASDNVDAAELVETIAATAREIEENSRLLENMTEVVRKGIQEAQVELQKASEERLLEEGVLRQIPVVGSVLNWFSPVQALQKGRTFNLTAGSLESTEPIYVYKAQGAGVTLPPTPSGSRTKQRLPGQKPFKRSLRGSDALSETSSVSHIEDLEKVERLSSGPEQITLEASSTEGHPGAPSPQHTDQTEAFQKGVPHPEDDHSQVEGPESLR [PDXDC1]”, for which the “solubility in G1/S (log2)” value in series [1] amounted to 0.342. Also, the melting temperature in series [2] (cell cycle stage: G1/S) is 47.8 °C; in series [2] (cell cycle stage: mitosis), 48.8 °C. The “solubility change mitosis (log2)” value in series [3] is -0.152. Besides, the thermal stability score in series [4] (setting [5]) came to 1.35; in series [4] (cell cycle stage: mitosis) it was 2.61.

In the case of “MDATALERDAVQFARLAVQRDHEGRYSEAVFYYKEAAQALIYAEMAGSSLENIQEKITEYLERVQALHSAVQSKSADPLKSKHQLDLERAHFLVTQAFDEDEKENVEDAIELYTEAVDLCLKTSYETADKVLQNKLKQLARQALDRAEALSEPLTKPVGKISSTSVKPKPPPVRAHFPLGANPFLERPQSFISPQSCDAQGQRYTAEEIEVLRTTSKINGIEYVPFMNVDLRERFAYPMPFCDRWGKLPLSPKQKTTFSKWVRPEDLTNNPTMIYTVSSFSIKQTIVSDCSFVASLAISAAYERRFNKKLITGIIYPQNKDGEPEYNPCGKYMVKLHLNGVPRKVIIDDQLPVDHKGELLCSYSNNKSELWVSLIEKAYMKVMGGYDFPGSNSNIDLHALTGWIPERIAMHSDSQTFSKDNSFRMLYQRFHKGDVLITASTGMMTEAEGEKWGLVPTHAYAVLDIREFKGLRFIQLKNPWSHLRWKGRYSENDVKNWTPELQKYLNFDPRTAQKIDNGIFWISWDDLCQYYDVIYLSWNPGLFKESTCIHSTWDAKQGPVKDAYSLANNPQYKLEVQCPQGGAAVWVLLSRHITDKDDFANNREFITMVVYKTDGKKVYYPADPPPYIDGIRINSPHYLTKIKLTTPGTHTFTLVVSQYEKQNTIHYTVRVYSACSFTFSKIPSPYTLSKRINGKWSGQSAGGCGNFQETHKNNPIYQFHIEKTGPLLIELRGPRQYSVGFEVVTVSTLGDPGPHGFLRKSSGDYRCGFCYLELENIPSGIFNIIPSTFLPKQEGPFFLDFNSIIPIKITQLQ [CAPN7]”, the “solubility in G1/S (log2)” value in series [1] stood at 0.0756. The melting temperature in series [2] (cell cycle stage: G1/S) was determined as 50.4 °C; in series [2] (cell cycle stage: mitosis) it was 49.7 °C. Also, the “solubility change mitosis (log2)” value in series [3] was -0.0174. The thermal stability score was -0.306 in series [4] (setting [5]) and -0.374 in series [4] (cell cycle stage: mitosis).
